Results published in the supplement of paper PMC9170038.

How the values were obtained:
MS2 coat protein [1] = assay: apparent KD of MS2 coat protein; designed switch direction (-1 OFF switch, 1 ON switch): -1; higher = weaker reporter binding; conditions: Eterna round: R98
Procedure: (§1)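 RNA-MaP: designed FMN/MS2 RNA switches (84 nt design region) are transcribed on-chip within common flanks and titrated with SNAP-549-labelled MS2 coat protein (about 1-3000 nM) in 100 mM Tris pH 7.5, 80 mM KCl, 4 mM MgCl2, without or with 200 uM FMN. Median apparent KD per design; activation ratio = KD,OFF / KD,ON.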

MS2 coat protein [2] = assay: apparent KD of MS2 coat protein; higher = weaker reporter binding; conditions: Eterna round: R101
Procedure: as §1

MS2 coat protein [3] = assay: apparent KD of MS2 coat protein; designed switch direction (-1 OFF switch, 1 ON switch): 1; higher = weaker reporter binding; conditions: Eterna round: R98
Procedure: as §1

AGACUCAGAUGGUGCCAGCUUGCACAUGAGGAUCACCCAUGUCAGGAUAUCUUCGCUCCGAGAGAAGAGAAGGGACAAGAAUUU [Soedon]
apparent KD of MS2 coat protein (MS2 coat protein [1]; input ligand: FMN 200 uM): 0.234 µM | apparent KD of MS2 coat protein (MS2 coat protein [1]; input ligand: none): 0.0794 µM

GUCAGCUCGUGAGGAUAUACAUCACUGCUUCGGCAGUGUAUUAAGAUCACAUGAGGAUCACCCAUGUAGAAGGCACGAGCUGAU [#SameSwitchNG2InvertedNG3 NG2 A1] (puzzle (switch architecture): Exclusion NG 2)
apparent KD of MS2 coat protein (MS2 coat protein [2]; input ligand: FMN 200 uM): 0.201 µM | apparent KD of MS2 coat protein (MS2 coat protein [2]; input ligand: none): 0.0146 µM

CCAUAAAAGAUCCAAAAUUACAACAUGAGGAUCACCCAUGUGCAGGAUAUCGUGAAAGUAAAGUACGAGAAGGGCAGACACUGC [salish99_ExNG3_r2_008]
apparent KD of MS2 coat protein (MS2 coat protein [1]; input ligand: FMN 200 uM): 0.139 µM | apparent KD of MS2 coat protein (MS2 coat protein [1]; input ligand: none): 0.154 µM

GGAGAUACAUGAGGAUCACCCAUGUAGGAUAUAUAGUAUAUAUAUAUCGAAAGAUAUAUAUAUAUAUAGAAGGGCGUGCACACC [#LOL-16] (puzzle (switch architecture): Small Loop Exclusion NG 3)
apparent KD of MS2 coat protein (MS2 coat protein [2]; input ligand: FMN 200 uM): 0.00674 µM | apparent KD of MS2 coat protein (MS2 coat protein [2]; input ligand: none): 0.00834 µM

CCGAUGCAAAUAAAACAUGAGGAUCACCCAUGUGAGUCUCAUGAGGAUAUGCAGGUCUUUGACUUGCAGAAGGCAUGGCGUCGG [Mat - Same State NG 3 - JL Mod - D70]
apparent KD of MS2 coat protein (MS2 coat protein [3]; input ligand: FMN 200 uM): 0.138 µM | apparent KD of MS2 coat protein (MS2 coat protein [3]; input ligand: none): 1.05 µM

GCAGAAGGUGCGGAGGAUCACCCUGUAAGGAUAUGCAUUAGCAAGGAUAUACAGAGGAUCACCCUGUAGAAGGUGCACUUCUAA [pwkr2 ssNG3 DX.7]
apparent KD of MS2 coat protein (MS2 coat protein [3]; input ligand: FMN 200 uM): 1.29 µM | apparent KD of MS2 coat protein (MS2 coat protein [3]; input ligand: none): 1.17 µM

GCUCUCACUUGAGGAUAUCGAGUGGAAUACACUCGAGAAGGCAGGAAAACCUGAGGAUCACCCAGGUAACUGGAAAGAGAGCAA [Same State NG1 - A3C, U17G Submission 5G-G46A]
apparent KD of MS2 coat protein (MS2 coat protein [3]; input ligand: FMN 200 uM): 0.0203 µM | apparent KD of MS2 coat protein (MS2 coat protein [3]; input ligand: none): 0.0161 µM

CAACUGGCACAGAAGGGUGACAUGAGGAUCACCCAUGUAGCGUGGCACUCAGGAGGAGCCACGCCACAGGAUAUGUGCCGACAC [Beisreriar] (puzzle (switch architecture): Inverted Same State NG 2)
apparent KD of MS2 coat protein (MS2 coat protein [2]; input ligand: FMN 200 uM): 0.0457 µM | apparent KD of MS2 coat protein (MS2 coat protein [2]; input ligand: none): 0.0299 µM

CCGACGCCUCAGAAGGCACUCGCAUAAUGCGAGUGAGGAUAUGAGGAUCACCCAUAUCAACGUCGGAGUCACCGAAACGGUGAC [#SharedSequence - IEx NG 1-2] (puzzle (switch architecture): Inverted Exclusion NG 1)
apparent KD of MS2 coat protein (MS2 coat protein [2]; input ligand: FMN 200 uM): 0.0781 µM

UCGAACGGAAACAAAGUCGAUAGACAUGAGGAUCACCCAUGUCAGGAUAUGCCUACUAAAAGUAGGCAGAAGGGACGCGUUCGA [Contusion 7 - Jieux - Exclusion NG 3]
apparent KD of MS2 coat protein (MS2 coat protein [1]; input ligand: FMN 200 uM): 0.018 µM | apparent KD of MS2 coat protein (MS2 coat protein [1]; input ligand: none): 0.0208 µM

GUAGCUAUCGGAGGAUAUUCAUAGCCGAGAGGCACAUGAGGAUCACCCAUGUGCGGAAACGCUUGGGAGAAGGCCGAUAGCUAC [Mat - Same State NG 2 - JL Mod - D77]
apparent KD of MS2 coat protein (MS2 coat protein [3]; input ligand: FMN 200 uM): 0.0143 µM | apparent KD of MS2 coat protein (MS2 coat protein [3]; input ligand: none): 0.0215 µM

AAAUUUAACGAAGGAUAUGCUGACAUGAGGAUCACCCAUGUGUGCCUUGUGUUGCUGCCUCGGGAGCAGAAGGUCGUAUACAUA [Ex NG2 #11]
apparent KD of MS2 coat protein (MS2 coat protein [1]; input ligand: FMN 200 uM): 0.613 µM | apparent KD of MS2 coat protein (MS2 coat protein [1]; input ligand: none): 0.454 µM

UCAUACAUGACAUGACAUGACAUGAGGAUCACCCAUGUUUACAAGGAUAUGUUGAUGAAACAUCAACAGAAGGUGUAAUGGACU [xclu_NG3_cac7]
apparent KD of MS2 coat protein (MS2 coat protein [1]; input ligand: FMN 200 uM): 0.232 µM | apparent KD of MS2 coat protein (MS2 coat protein [1]; input ligand: none): 0.136 µM

AAAUAACUUGAAGGAUAUCAGGGUGCACCUCAGUAAAACUGAGGUGCACCCUGAGAAGGUCGAGGAUCACCCGAUCUAAAUAAA [#SharedSequence SLExNG1: 3-2] (puzzle (switch architecture): Small Loop Exclusion NG 1)
apparent KD of MS2 coat protein (MS2 coat protein [2]; input ligand: FMN 200 uM): 0.0135 µM | apparent KD of MS2 coat protein (MS2 coat protein [2]; input ligand: none): 0.00919 µM

GUGCACAUUCGAGGAUAUCGGAGAGGAGUCCUUCGAGAAGGCGAUUCAUGCUGUGUUAUUCUGGACAUGAGGAUCACCCAUGUG [LRO019_SS NG 1 mod JR_SSNG1_Sub034]
apparent KD of MS2 coat protein (MS2 coat protein [3]; input ligand: FMN 200 uM): 0.107 µM | apparent KD of MS2 coat protein (MS2 coat protein [3]; input ligand: none): 0.149 µM

GGACAUCCCACAGGAUAUGCUGGACUUUGUCCAGCAGAAGGGUGAAACAUGAGGAUCACCCAUGUAAGGAUGUCCAUAUUUAAU [Denovo 40]
apparent KD of MS2 coat protein (MS2 coat protein [3]; input ligand: FMN 200 uM): 0.217 µM | apparent KD of MS2 coat protein (MS2 coat protein [3]; input ligand: none): 2.19 µM

AGAUGACAAAGUCAUCUCGCGCAGACAUGAGGAUCACCCAUGUAGGAUAUACUACUCAAAGAGUAGUAGAAGGACAUGUGUCUU [Ex NG2 #57]
apparent KD of MS2 coat protein (MS2 coat protein [1]; input ligand: FMN 200 uM): 0.111 µM | apparent KD of MS2 coat protein (MS2 coat protein [1]; input ligand: none): 0.0325 µM

AAAUAACUUGAAGGAUAUGACCCUCGAGGUGACUAAAAGUCACCUCGAGGGUCAGAAGGUCGAGGAUCACCCGAUCUAAAUAAA [#SharedSequence SLExNG1: 3-1] (puzzle (switch architecture): Small Loop Exclusion NG 1)
apparent KD of MS2 coat protein (MS2 coat protein [2]; input ligand: FMN 200 uM): 0.0246 µM | apparent KD of MS2 coat protein (MS2 coat protein [2]; input ligand: none): 0.0102 µM

GACGAAAUCUUAGGAUAUCGAGUGGAAUACACUCGAGAAGGAAGAUAUACCUGAGGAUCACCCAGGUAAAACUGGACGUCAAUA [Same State NG1 - A3C, U17G Submission 8H U68A, U7A]
apparent KD of MS2 coat protein (MS2 coat protein [3]; input ligand: FMN 200 uM): 0.0266 µM | apparent KD of MS2 coat protein (MS2 coat protein [3]; input ligand: none): 0.0298 µM

AGGUAUACUUAGAAGGCGUGGACGAAACGUCCACGAGGAUAUGAGGAUCACCCAUAUCAGGUCAGCCUGCAAAGCAGGCUGACC [#SharedSequence - IExNG1: 8-2] (puzzle (switch architecture): Inverted Exclusion NG 1)
apparent KD of MS2 coat protein (MS2 coat protein [2]; input ligand: FMN 200 uM): 0.0439 µM | apparent KD of MS2 coat protein (MS2 coat protein [2]; input ligand: none): 0.0122 µM

GCUGUCGCAUGAGGAUAUGGUCACGUUUCGUGACCAGAAGGCAUGUCAAUAGACAUGAGGAUCACCCAUGUAGUAAAGACAGCA [Mat - Same State NG 1 - JL Mod - D40]
apparent KD of MS2 coat protein (MS2 coat protein [3]; input ligand: FMN 200 uM): 0.0351 µM | apparent KD of MS2 coat protein (MS2 coat protein [3]; input ligand: none): 0.386 µM

ACAUGGAAUCGAGGAUAUGACGCGGAAACGAAGUCAGAAGGCGAAAAUUUAACUCGAUAAUACAUGAGGAUCACCCAUGUAAUU [AK-NGROCr2-ExNG1-3]
apparent KD of MS2 coat protein (MS2 coat protein [1]; input ligand: FMN 200 uM): 0.0246 µM | apparent KD of MS2 coat protein (MS2 coat protein [1]; input ligand: none): 0.0197 µM

GCACUGGAUGUAGGAUAUCAGGACGAUAAGUCCUGAGAAGGACAUGAGGAUCACCCAUGUGAUAAUACCAGUGCAAAUAAUAUA [Denovo Exng1 26]
apparent KD of MS2 coat protein (MS2 coat protein [1]; input ligand: FMN 200 uM): 0.119 µM | apparent KD of MS2 coat protein (MS2 coat protein [1]; input ligand: none): 0.0195 µM

GGCAGCCUUCAGAAGGGAGUGCGAUAAUCGCACUCAGGAUAUGAGGAUCACCCAUAUCAAGCUGCCACUGAGGCAAAGCCUCAG [#SharedSequence - IEx NG 2-1] (puzzle (switch architecture): Inverted Exclusion NG 1)
apparent KD of MS2 coat protein (MS2 coat protein [2]; input ligand: FMN 200 uM): 0.0121 µM | apparent KD of MS2 coat protein (MS2 coat protein [2]; input ligand: none): 0.0108 µM

UAACUAAUAUACACAUGAGGAUCACCCAUGUCCACCCGUGGACAGGAUAUCUGGCCGCGCCGGCUGGAGAAGGGUCCGUAUUGU [Arianesge]
apparent KD of MS2 coat protein (MS2 coat protein [3]; input ligand: FMN 200 uM): 0.172 µM | apparent KD of MS2 coat protein (MS2 coat protein [3]; input ligand: none): 0.0562 µM

UUGGACGUCGUAGGAUAUGUAGGAUAUUCCUACAUGAGGAUCACCCAUGUUUACAUGGAAGAAGGACAGAAGGACGAUGUCCAU (puzzle (switch architecture): Same State NG 2)
apparent KD of MS2 coat protein (MS2 coat protein [2]; input ligand: FMN 200 uM): 0.00573 µM | apparent KD of MS2 coat protein (MS2 coat protein [2]; input ligand: none): 0.572 µM

GUAGCAUACUGAGGAUAUUCAUAUAAUAAAUAAACAUGAGGAUCACCCAUGUGGCGAAAGCCUUGGGAGAAGGCAGAAUGCUAC [Xeonanis 55 7]
apparent KD of MS2 coat protein (MS2 coat protein [3]; input ligand: FMN 200 uM): 0.0383 µM | apparent KD of MS2 coat protein (MS2 coat protein [3]; input ligand: none): 0.511 µM

UGCUAACUGUAGAAGGGUGACAUGAGGAUCACCCAUGUGCACGCGCGAUUUACGGCGCGCGUGCCACAGGAUAUACAGUUUAGU [Atquar] (puzzle (switch architecture): Inverted Same State NG 2)
apparent KD of MS2 coat protein (MS2 coat protein [2]; input ligand: FMN 200 uM): 0.0343 µM | apparent KD of MS2 coat protein (MS2 coat protein [2]; input ligand: none): 0.0327 µM

CCACAACAUUGAGGAUAUGCACAGGAUCACCGUGUAGAAGGCAUCAGGGAGAAGGUGCAGAGGAUCACCCUGUAAGGAUAUCUA [pwkr2 ssNG1 DX.8]
apparent KD of MS2 coat protein (MS2 coat protein [3]; input ligand: FMN 200 uM): 0.133 µM | apparent KD of MS2 coat protein (MS2 coat protein [3]; input ligand: none): 0.34 µM

GGAGAUACAUGAGGAUCACCCAUGUAGGAUAUCGGGCCCAUAUACGGCGAAAGCCGUAUAUGGGCCGAGAAGGGCGUACACACC [#LOL-7] (puzzle (switch architecture): Small Loop Exclusion NG 3)
apparent KD of MS2 coat protein (MS2 coat protein [2]; input ligand: FMN 200 uM): 0.00796 µM | apparent KD of MS2 coat protein (MS2 coat protein [2]; input ligand: none): 0.00878 µM

UAUAUAAUUAAGAGCUGGAAAAUCACAUGAGGAUCACCCAUGUAGGAUAUCAGCACGAUAAGUGCUGAGAAGGACUACCAGCUC [Denovo 79]
apparent KD of MS2 coat protein (MS2 coat protein [1]; input ligand: FMN 200 uM): 0.0158 µM | apparent KD of MS2 coat protein (MS2 coat protein [1]; input ligand: none): 0.02 µM

GUGAGGCAUCUACACGCUCGGGCCGAGGAUAUACAUGAGGAUCACCCAUGUAACAGUGCGGUCAUGUAGAAGGCGGCUAAAUUA [Rianrare] (puzzle (switch architecture): Small Loop Exclusion NG 3)
apparent KD of MS2 coat protein (MS2 coat protein [2]; input ligand: FMN 200 uM): 0.0423 µM | apparent KD of MS2 coat protein (MS2 coat protein [2]; input ligand: none): 0.0111 µM
